Tests used:
[1] = molecular target: GPNMB (CG56972), native full-length protein on the cell surface or in cell lysates (human) (UniProt Q14956); experiment: flow cytometry on SK-MEL-2 cells, Anti Human IgG PE
[2] = molecular target: GPNMB (CG56972), native full-length protein on the cell surface or in cell lysates (human) (UniProt Q14956); experiment: flow cytometry on HEK293 cells transfected with GPNMB plasmid, 10 µg/mL antibody, PE goat anti-human secondary; the same staining on empty-vector cells prints 7.96
[3] = molecular target: GPNMB (CG56972), native full-length protein on the cell surface or in cell lysates (human) (UniProt Q14956); experiment: FACS, UACC-62 cells, Ab 1 ug/mL
[4] = molecular target: GPNMB-V5His (recombinant human GPNMB extracellular domain with C-terminal V5-His tag) (human) (UniProt Q14956); experiment: ELISA, coated GPNMB, Ab 1 ug/mL
[5] = molecular target: GPNMB-V5His (recombinant human GPNMB extracellular domain with C-terminal V5-His tag) (human) (UniProt Q14956); experiment: ELISA, coated GPNMB, Ab 3 ug/mL
[6] = molecular target: GPNMB-V5His (recombinant human GPNMB extracellular domain with C-terminal V5-His tag) (human) (UniProt Q14956); experiment: ELISA, coated GPNMB, Ab 111 ng/mL
[7] = molecular target: GPNMB-V5His (recombinant human GPNMB extracellular domain with C-terminal V5-His tag) (human) (UniProt Q14956); experiment: ELISA, coated GPNMB, Ab 333 ng/mL
[8] = molecular target: GPNMB-V5His (recombinant human GPNMB extracellular domain with C-terminal V5-His tag) (human) (UniProt Q14956); experiment: ELISA, coated GPNMB, Ab 37 ng/mL
[9] = molecular target: GPNMB-V5His (recombinant human GPNMB extracellular domain with C-terminal V5-His tag) (human) (UniProt Q14956); experiment: ELISA, coated GPNMB, Ab 12.3 ng/mL
[10] = molecular target: GPNMB-V5His (recombinant human GPNMB extracellular domain with C-terminal V5-His tag) (human) (UniProt Q14956); experiment: ELISA, coated GPNMB, secondary antibody alone (column head 3 ug/mL)
[11] = molecular target: GPNMB-V5His (recombinant human GPNMB extracellular domain with C-terminal V5-His tag) (human) (UniProt Q14956); experiment: SPR (Biacore), mAb on protein A, GPNMB 880 nM
[12] = molecular target: GPNMB (CG56972), native full-length protein on the cell surface or in cell lysates (human) (UniProt Q14956); experiment: flow cytometry on HEK293 cells transfected with GPNMB plasmid, secondary antibody alone; on empty-vector cells it prints 5.86

Chain of GPNMB (CG56972), native full-length protein on the cell surface or in cell lysates (human) (Q14956 23-492): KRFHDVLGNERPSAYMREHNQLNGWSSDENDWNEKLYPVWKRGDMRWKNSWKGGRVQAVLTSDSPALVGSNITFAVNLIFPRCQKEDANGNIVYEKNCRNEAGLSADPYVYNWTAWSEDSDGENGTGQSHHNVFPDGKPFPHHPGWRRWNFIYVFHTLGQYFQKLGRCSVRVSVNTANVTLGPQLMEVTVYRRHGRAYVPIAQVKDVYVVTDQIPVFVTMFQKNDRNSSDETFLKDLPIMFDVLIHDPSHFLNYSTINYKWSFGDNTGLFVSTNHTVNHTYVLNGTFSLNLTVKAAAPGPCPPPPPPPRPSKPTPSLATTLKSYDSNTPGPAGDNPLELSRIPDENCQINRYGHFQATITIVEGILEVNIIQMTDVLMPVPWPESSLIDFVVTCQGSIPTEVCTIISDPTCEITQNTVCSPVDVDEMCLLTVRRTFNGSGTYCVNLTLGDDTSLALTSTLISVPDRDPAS

| Substance | Avg OD [4] [OD] | Avg OD [5] [OD] | Avg OD [6] [OD] | Avg OD [7] [OD] | other results |
| --- | --- | --- | --- | --- | --- |
| Control (antibody) | – | – | – | – | Geo Mean [1]: 3.03; Mean [1]: 3.54; Median [1]: 2.84 |
| isotype-matched control IgG2 antibody | – | – | – | – | Geometric Mean [2]: 8.63 |
| CR011.2.6.2 (antibody) | – | – | – | – | Geo Mean Ratio (relative to pK16) [3]: 1.9 |
| Irrelevant Antibody (Table 6) | 0.008 | 0.009 | 0.013 | 0.012 | – |
| Secondary Ab control (Table 6) (antibody) | – | – | – | – | Avg OD [10]: 0.011 OD |
| Secondary Ab-PE (antibody) | – | – | – | – | Geometric Mean [12]: 7.69 |

More lines, main results first:

| Avg OD [4] [OD] | Avg OD [5] [OD] | Avg OD [6] [OD] | Avg OD [7] [OD] | Substance | other results |
| --- | --- | --- | --- | --- | --- |
| 0.008 | 0.009 | 0.009 | 0.009 | Isotype control (Table 6) (antibody) | Avg OD [8]: 0.009 OD; Avg OD [9]: 0.011 OD |
| 1.05 | 1.16 | 0.701 | 0.902 | Mab1.15.1 (CR011), fully human IgG2 (antibody) | Avg OD [8]: 0.381 OD; Avg OD [9]: 0.168 OD; Kd [11]: 52 nM |
